One test has as its target FGF8b. Nature of the test: SPR. (In SPR one partner is held on a chip, and binding of the other changes the refractive index at the surface.)
The target in another test is FGF1 (UniProt P05230 1-155). Put plainly: SPR.
FGF1, sequence (P05230 whole entry): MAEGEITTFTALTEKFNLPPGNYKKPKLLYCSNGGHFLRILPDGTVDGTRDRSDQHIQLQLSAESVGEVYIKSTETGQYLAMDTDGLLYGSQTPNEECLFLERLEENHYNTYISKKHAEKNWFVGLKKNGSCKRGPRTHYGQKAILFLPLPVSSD

B1: D1-D2-D3^ΔAB (FGFR1c) (domain or fragment)
chain: RPSPTLPEQAQPWGAPVEVESFLVHPGDLLQLRCRLRDDVQSINWLRDGVQLAESNRTRITGEEVEVQDSVPADSGLYACVTSSPSGSDTTYFSVNVSDALPSSKETDNTKPNRMPVAPYWTSPEKMEKKLHAVPAAKTVKFKCPSSGTPNPTLRWLKNGKEFKPDHRIGGYKVRYATWSIIMDSVVPSDKGNYTCIVENEYGSINHTYQLDVVERSPHRPILQAGLPANKTVALGSNVEFMCKVYSDPQPHIQWLKHIEVNGSKIGPDNLPYVQILKTAGVNTTDKEMEVLHLRNVSFEDAGEYTCLAGNSIGLSHHSAWLTVLEALEERPAVMTSPLYLE
Consider B1, for which the values for the dissociation constant (Kd) with FGF8b and with FGF1 were 390 nM and 265 nM, respectively.

B2: D1-AB13ALA-D2-D3 (FGFR1c) (domain or fragment)
chain: RPSPTLPEQAQPWGAPVEVESFLVHPGDLLQLRCRLRDDVQSINWLRDGVQLAESNRTRITGEEVEVQDSVPADSGLYACVTSSPSGSDTTYFSVNVSDALPSSAAAAAAAAAAAAAKETDNTKPNRMPVAPYWTSPEKMEKKLHAVPAAKTVKFKCPSSGTPNPTLRWLKNGKEFKPDHRIGGYKVRYATWSIIMDSVVPSDKGNYTCIVENEYGSINHTYQLDVVERSPHRPILQAGLPANKTVALGSNVEFMCKVYSDPQPHIQWLKHIEVNGSKIGPDNLPYVQILKTAGVNTTDKEMEVLHLRNVSFEDAGEYTCLAGNSIGLSHHSAWLTVLEALEERPAVMTSPLYLE
With B2, the results for the Kd with FGF8b and with FGF1 were 329 nM and 268 nM, respectively.

As a reminder, the Kd is the equilibrium constant for the complex coming apart.

(Values after publication PMC3378326 (Structure(London, England:1993), 2012).)
